Results from the supplement of paper PMC10065799, “High-throughput profiling of sequence recognition by tyrosine kinases and SH2 domains using bacterial peptide display” (eLife, 2023).

biological target: c-Src SH2; test: SH2 binding enrichment of the phosphorylated peptide, bacterial display (enrichment ratio); higher = better substrate or ligand; peptides without Tyr show the background
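Throughout, for SH2 binding enrichment of the phosphorylated peptide, bacterial display: peptide library displayed on the E. coli surface as eCPX fusions, selected cells deep-sequenced, score is each peptide's frequency after selection divided by its frequency in the input.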
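Throughout, for phosphorylation enrichment, bacterial display: 11-residue human phosphosite peptides and single-mutation variants displayed on the E. coli surface, counted by deep sequencing, each peptide's frequency after selection divided by its frequency in the unselected input library; frequency after pTyr selection over input frequency; kinase dosed for 20-30% of maximal phosphorylation in three min.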

Sequence | SH2 binding enrichment
FRTPGYREVVI [TNS2_Y673_A670T_YF] | 0.607
ISNATYKQIGL [FLT1_Y199_E201Q] | 0.481
GRLFAYPDTHC [CAT_Y358_R363C] | 0.531
SLGKGYSDGGC [MC4R_Y35] | 0.632
EEGNPYYSGAR [MCCC2_Y520_S523G] | 0.714
GFPVRYTDVSN [DNMT3B_Y815_H814R] | 1.24
EIVFVYVKKRS [DNAI2_Y7_YF] | 0.516
QPSPSYDSSGG [TCF12_Y70_R74G] | 0.573
WSRAMYPDLGP [STARD8_Y330] | 0.608
IFHENYNAGTF [CFI_Y421_YF] | 0.479
DMGAQYAAASR [ARID1B_Y483_P488R] | 0.612
FQGRRYDCDCD [CRYGS_Y21] | 0.571
HNVPIYEGFGL [ACTA1_Y168_A172G_YF] | 0.513
PSTYRYERGSR [INPPL1_Y663_P659S] | 0.495
NAGAFYALSTL [FLVCR2_Y325] | 0.592
IEPVIYVVQRR [ANOS1_Y217] | 0.255
PSSNLYYRWLT [CNGA3_Y168] | 0.816

Sequence | SH2 binding enrichment
ETELPYQELQG [TYROBP_Y91_S89L] | 0.84
LRSKQYLRNPP [SHC1_Y315_F312S] | 0.783
KSFDMYSGDVM [FAM3D_Y122_A118S] | 0.613
ADRNHYRRFPR [YBX1_Y145_YF] | 0.488
QQMGTYGVRAA [ICAM2_Y260_R256Q] | 0.37
DDYDLYGGEKF [PTPN11_Y66_Y62D] | 0.553
MTRDIYETDFF [INSR_Y1185_YF] | 0.997
KLIETCFSKNF [PLP1_Y50_Y50C_YF] | 0.482
RIFDFYSARKT [STOX1_Y858_A863T_YF] | 0.517
FRDALYKFIVD [PHEX_Y250_M253I_YF] | 1.04
GDGRFYMKEAI [PGM1_Y66] | 0.561
YKEDPYLVVNP [MCM6_Y810_E806K] | 0.58
PSPMPYACCQM [FOXL2_Y215_S217C] | 1.32
IPTPAYQSLPA [PDCD6IP_Y727_S730L] | 1.18
IFRASYFRRGD [LTK_Y676_YF] | 0.315
DSYWSYCNAVA [SLC20A2_Y436_S434W] | 0.817

biological target: SHP2-C SH2; test: as above

Sequence | SH2 binding enrichment
FRTPGYREVVI [TNS2_Y673_A670T_YF] | 0.901
ISNATYKQIGL [FLT1_Y199_E201Q] | 0.78
GRLFAYPDTHC [CAT_Y358_R363C] | 0.846
SLGKGYSDGGC [MC4R_Y35] | 0.678
EEGNPYYSGAR [MCCC2_Y520_S523G] | 0.538
GFPVRYTDVSN [DNMT3B_Y815_H814R] | 1.38
EIVFVYVKKRS [DNAI2_Y7_YF] | 0.833
QPSPSYDSSGG [TCF12_Y70_R74G] | 0.977
WSRAMYPDLGP [STARD8_Y330] | 0.933
IFHENYNAGTF [CFI_Y421_YF] | 0.684
DMGAQYAAASR [ARID1B_Y483_P488R] | 0.553
FQGRRYDCDCD [CRYGS_Y21] | 0.687
HNVPIYEGFGL [ACTA1_Y168_A172G_YF] | 0.823
PSTYRYERGSR [INPPL1_Y663_P659S] | 0.492
NAGAFYALSTL [FLVCR2_Y325] | 0.837
IEPVIYVVQRR [ANOS1_Y217] | 0.236
PSSNLYYRWLT [CNGA3_Y168] | 1.59

Sequence | SH2 binding enrichment
ETELPYQELQG [TYROBP_Y91_S89L] | 0.504
LRSKQYLRNPP [SHC1_Y315_F312S] | 0.82
KSFDMYSGDVM [FAM3D_Y122_A118S] | 0.674
ADRNHYRRFPR [YBX1_Y145_YF] | 0.55
QQMGTYGVRAA [ICAM2_Y260_R256Q] | 0.373
DDYDLYGGEKF [PTPN11_Y66_Y62D] | 0.59
MTRDIYETDFF [INSR_Y1185_YF] | 0.565
KLIETCFSKNF [PLP1_Y50_Y50C_YF] | 0.561
RIFDFYSARKT [STOX1_Y858_A863T_YF] | 0.907
FRDALYKFIVD [PHEX_Y250_M253I_YF] | 1.02
GDGRFYMKEAI [PGM1_Y66] | 0.658
YKEDPYLVVNP [MCM6_Y810_E806K] | 0.538
PSPMPYACCQM [FOXL2_Y215_S217C] | 0.426
IPTPAYQSLPA [PDCD6IP_Y727_S730L] | 0.876
IFRASYFRRGD [LTK_Y676_YF] | 0.509
DSYWSYCNAVA [SLC20A2_Y436_S434W] | 0.649

biological target: Grb2 SH2 (UniProt P62993); test: as above
Sequence (P62993 whole entry, looked up): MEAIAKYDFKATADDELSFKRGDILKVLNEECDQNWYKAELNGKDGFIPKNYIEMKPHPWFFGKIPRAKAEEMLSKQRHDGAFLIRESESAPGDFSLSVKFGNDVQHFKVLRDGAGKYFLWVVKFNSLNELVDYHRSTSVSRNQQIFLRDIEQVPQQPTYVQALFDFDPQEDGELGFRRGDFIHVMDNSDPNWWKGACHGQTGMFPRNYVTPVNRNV

Sequence | SH2 binding enrichment
FRTPGYREVVI [TNS2_Y673_A670T_YF] | 1.35
ISNATYKQIGL [FLT1_Y199_E201Q] | 0.863
GRLFAYPDTHC [CAT_Y358_R363C] | 0.835
SLGKGYSDGGC [MC4R_Y35] | 0.763
EEGNPYYSGAR [MCCC2_Y520_S523G] | 0.9
GFPVRYTDVSN [DNMT3B_Y815_H814R] | 0.96
EIVFVYVKKRS [DNAI2_Y7_YF] | 0.995
QPSPSYDSSGG [TCF12_Y70_R74G] | 1.02
WSRAMYPDLGP [STARD8_Y330] | 1.02
IFHENYNAGTF [CFI_Y421_YF] | 0.869
DMGAQYAAASR [ARID1B_Y483_P488R] | 0.761
FQGRRYDCDCD [CRYGS_Y21] | 0.926
HNVPIYEGFGL [ACTA1_Y168_A172G_YF] | 0.85
PSTYRYERGSR [INPPL1_Y663_P659S] | 0.814
NAGAFYALSTL [FLVCR2_Y325] | 0.979
IEPVIYVVQRR [ANOS1_Y217] | 0.512
PSSNLYYRWLT [CNGA3_Y168] | 1.32

Sequence | SH2 binding enrichment
ETELPYQELQG [TYROBP_Y91_S89L] | 0.727
LRSKQYLRNPP [SHC1_Y315_F312S] | 1.05
KSFDMYSGDVM [FAM3D_Y122_A118S] | 0.803
ADRNHYRRFPR [YBX1_Y145_YF] | 0.601
QQMGTYGVRAA [ICAM2_Y260_R256Q] | 1.07
DDYDLYGGEKF [PTPN11_Y66_Y62D] | 0.76
MTRDIYETDFF [INSR_Y1185_YF] | 0.855
KLIETCFSKNF [PLP1_Y50_Y50C_YF] | 0.849
RIFDFYSARKT [STOX1_Y858_A863T_YF] | 0.977
FRDALYKFIVD [PHEX_Y250_M253I_YF] | 1.02
GDGRFYMKEAI [PGM1_Y66] | 0.642
YKEDPYLVVNP [MCM6_Y810_E806K] | 0.829
PSPMPYACCQM [FOXL2_Y215_S217C] | 0.888
IPTPAYQSLPA [PDCD6IP_Y727_S730L] | 0.707
IFRASYFRRGD [LTK_Y676_YF] | 0.382
DSYWSYCNAVA [SLC20A2_Y436_S434W] | 1.02

biological target: FGFR1 (UniProt P11362); test: phosphorylation enrichment, bacterial display (enrichment ratio); higher = better substrate or ligand; peptides without Tyr show the background
Sequence (P11362 whole entry, looked up): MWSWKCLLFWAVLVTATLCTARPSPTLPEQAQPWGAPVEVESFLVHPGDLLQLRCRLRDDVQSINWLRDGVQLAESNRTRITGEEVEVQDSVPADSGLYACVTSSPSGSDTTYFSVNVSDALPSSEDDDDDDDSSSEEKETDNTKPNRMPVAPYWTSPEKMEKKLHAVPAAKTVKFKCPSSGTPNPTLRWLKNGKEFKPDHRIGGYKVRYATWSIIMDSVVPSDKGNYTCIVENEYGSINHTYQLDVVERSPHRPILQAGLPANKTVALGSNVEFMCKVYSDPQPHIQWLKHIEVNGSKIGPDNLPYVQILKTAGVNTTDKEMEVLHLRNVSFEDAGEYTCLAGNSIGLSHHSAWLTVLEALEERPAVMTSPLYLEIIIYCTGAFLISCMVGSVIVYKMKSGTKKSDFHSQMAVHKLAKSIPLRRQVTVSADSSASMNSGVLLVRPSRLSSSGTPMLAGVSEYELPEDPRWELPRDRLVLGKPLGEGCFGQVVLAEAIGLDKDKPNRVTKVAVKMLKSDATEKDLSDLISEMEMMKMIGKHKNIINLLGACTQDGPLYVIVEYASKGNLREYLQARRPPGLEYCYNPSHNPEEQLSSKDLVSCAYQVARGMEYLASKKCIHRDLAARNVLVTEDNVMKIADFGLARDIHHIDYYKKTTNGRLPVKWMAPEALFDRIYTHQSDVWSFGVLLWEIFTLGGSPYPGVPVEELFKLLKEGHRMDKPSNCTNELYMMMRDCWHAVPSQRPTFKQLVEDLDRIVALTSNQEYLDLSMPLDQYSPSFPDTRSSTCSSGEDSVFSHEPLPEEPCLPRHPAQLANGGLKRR

Sequence | phosphorylation enrichment
FRTPGYREVVI [TNS2_Y673_A670T_YF] | 0.45
ISNATYKQIGL [FLT1_Y199_E201Q] | 0.378
GRLFAYPDTHC [CAT_Y358_R363C] | 0.466
SLGKGYSDGGC [MC4R_Y35] | 0.576
EEGNPYYSGAR [MCCC2_Y520_S523G] | 0.542
GFPVRYTDVSN [DNMT3B_Y815_H814R] | 0.457
EIVFVYVKKRS [DNAI2_Y7_YF] | 0.498
QPSPSYDSSGG [TCF12_Y70_R74G] | 0.611
WSRAMYPDLGP [STARD8_Y330] | 0.467
IFHENYNAGTF [CFI_Y421_YF] | 0.473
DMGAQYAAASR [ARID1B_Y483_P488R] | 0.357
FQGRRYDCDCD [CRYGS_Y21] | 0.478
HNVPIYEGFGL [ACTA1_Y168_A172G_YF] | 0.507
PSTYRYERGSR [INPPL1_Y663_P659S] | 0.641
NAGAFYALSTL [FLVCR2_Y325] | 0.61
IEPVIYVVQRR [ANOS1_Y217] | 0.368
PSSNLYYRWLT [CNGA3_Y168] | 13.5

Sequence | phosphorylation enrichment
ETELPYQELQG [TYROBP_Y91_S89L] | 1.65
LRSKQYLRNPP [SHC1_Y315_F312S] | 0.277
KSFDMYSGDVM [FAM3D_Y122_A118S] | 0.654
ADRNHYRRFPR [YBX1_Y145_YF] | 0.539
QQMGTYGVRAA [ICAM2_Y260_R256Q] | 0.392
DDYDLYGGEKF [PTPN11_Y66_Y62D] | 0.507
MTRDIYETDFF [INSR_Y1185_YF] | 0.56
KLIETCFSKNF [PLP1_Y50_Y50C_YF] | 0.47
RIFDFYSARKT [STOX1_Y858_A863T_YF] | 0.519
FRDALYKFIVD [PHEX_Y250_M253I_YF] | 0.44
GDGRFYMKEAI [PGM1_Y66] | 0.52
YKEDPYLVVNP [MCM6_Y810_E806K] | 1.24
PSPMPYACCQM [FOXL2_Y215_S217C] | 0.494
IPTPAYQSLPA [PDCD6IP_Y727_S730L] | 0.497
IFRASYFRRGD [LTK_Y676_YF] | 0.465
DSYWSYCNAVA [SLC20A2_Y436_S434W] | 4.16
